Earlier results on 1 substance are cited in paper PMC10178616.

The target of the data set is AGR2 (Homo sapiens) (UniProt O95994).

A word on the Kd: it is the constant that tells how readily two partners part at equilibrium. As to AGR2 (from UniProt O95994), the dissociation constant (Kd) was 8.83 µM.
